Source: paper PMC3942486 (2014)

B1: styryl-SMRT peptide, labelled with BODIPY TMR (peptide)
chain: LVATVKEAGRSIXEIPR
modifications: styrylalanine in place of histidine1426; BODIPY TMR dye coupled via the amino-terminal cysteine
B2: homophenylalanine-SMRT peptide, labelled with BODIPY TMR (peptide)
chain: LVATVKEAGRSIXEIPR
modifications: homophenylalanine in place of histidine1426; BODIPY TMR dye coupled via the amino-terminal cysteine

Target: BCL6-POZ domain (residues 7 to 128 of human BCL6, C8Q, C67R, C84N) (human, UniProt P41182 7-128, cysteine8 mutated to glutamine | cysteine67 mutated to arginine | cysteine84 …)
Assay: FP

Row | Binder | Kd [µM]
1 | B1 | 41
2 | B2 | 43
